Source: the supplement of paper PMC10126150
± gives the standard deviation of the averaged measurements.

Each sequence was assayed on ATP (assay: switch fluorescence ratio, 500 uM ATP over buffer (Cy3 cluster intensity, sum of 5 cycles each) (fold (ratio)); higher = stronger signal-on switching upon ATP binding; sequences stand for … in TCGTCGGCAGCGTCAGATGTGTATAAGAGACAGTTTTTTTTTTTTTTTTTTTTTTTTT…TC). Details: aptamer strand: ATP DNA aptamer (quencher-CACCTGGGGGAGTATTGCGGAGGAAGG + anchor), 100 nM annealed; ATP concentration: 500 uM.
How it was run: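 After annealing to 100 nM quencher-labelled ATP aptamer, Cy3-labelled switching-strand clusters on a modified Illumina MiSeq flow-cell were imaged in selection buffer. A second image followed after 15 min with 500 uM ATP at 22 °C, and five such buffer/ATP cycles were done, each separated by NaOH stripping and re-annealing. The fluorescence ratio, averaged per switch-domain sequence, is summed target-cycle over summed buffer-cycle Cy3 intensity per cluster, with clusters outside 100-1000 RFU excluded.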
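Note: ATP exposure 15 min at 22 °C before imaging.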

Sequence	switch fluorescence ratio
AGGATCTATG	1.03 ± 0.021
AGGATGAGCT	0.969 ± 0.032
AGGATGGTAA	1 ± 0.02
AGGATGGTGG	1.02 ± 0.037
AGGATGTGAC	1.01 ± 0.02
AGGATTCGGC	1.04 ± 0.059
AGGATTGTGA	1.02 ± 0.028
AGGATTTACT	1.01 ± 0.026
AGGATTTAGG	0.983 ± 0.031
AGGCACAGAA	1.019 ± 0.0098
AGGCACGCGC	1.01 ± 0.013
AGGCAGTTCG	0.996 ± 0.02
AGGCAGTTGG	0.966 ± 0.019
AGGCATCGGA	0.9953 ± 0.0063
AGGCATTAAT	1.01 ± 0.018
AGGCCAGGGG	1.06 ± 0.1
AGGCCCACAT	1.01 ± 0.046
AGGCCCGAGC	0.98 ± 0.073
AGGCCCGGGC	0.958 ± 0.023
AGGCCGGAGC	1.06 ± 0.036
AGGCCGGGGG	0.992 ± 0.025
AGGCCGTTCG	0.9976 ± 0.0073
AGGCCTTTTC	1.008 ± 0.0026
AGGCGAAACG	0.97 ± 0.065
AGGCGACGTT	0.9931 ± 0.0069
AGGCGAGGGG	0.988 ± 0.032

Sequence	switch fluorescence ratio
AGGCGATAAT	1.12 ± 0.13
AGGCGATCGG	0.99 ± 0.023
AGGCGCGGTG	1.03 ± 0.0079
AGGCGCTTAT	1.33 ± 0.55
AGGCGGAGCT	0.9926 ± 0.0033
AGGCGGATTT	1 ± 0.044
AGGCGGCTGA	1.05 ± 0.021
AGGCGGGAGG	1.034 ± 0.0056
AGGCGGGGGT	1.018 ± 0.0094
AGGCGGGTAA	1.022 ± 0.0082
AGGCGTGGCT	0.982 ± 0.064
AGGCGTTGGT	1.05 ± 0.11
AGGCTAACCG	0.985 ± 0.019
AGGCTACGTC	0.9925 ± 0.0061
AGGCTGGCTC	0.98 ± 0.01
AGGCTGTGGG	1.03 ± 0.015
AGGCTTATCT	0.989 ± 0.025
AGGCTTGAGG	0.9904 ± 0.0044
AGGCTTTGGG	0.978 ± 0.0099
AGGGAAAAGG	1.02 ± 0.031
AGGGAAATAG	1.02 ± 0.023
AGGGAAATCT	1.034 ± 0.01
AGGGAAGAAC	1.006 ± 0.0073
AGGGAAGGGC	1.032 ± 0.0084
AGGGAATTGG	1.01 ± 0.044
AGGGACAACT	1.08 ± 0.0015

Sequence	switch fluorescence ratio
AGGGACGAGT	1.07 ± 0.11
AGGGACGCGC	1.07 ± 0.018
AGGGACGGTG	1 ± 0.056
AGGGAGAAGG	1 ± 0.011
AGGGAGATTT	0.99 ± 0.03
AGGGAGCCCG	1.01 ± 0.036
AGGGAGCTCC	1.01 ± 0.025
AGGGAGGAGC	0.923 ± 0.045
AGGGAGGGGT	0.983 ± 0.021
AGGGAGTTAT	1 ± 0.0014
AGGGATACTG	1.072 ± 0.0048
AGGGATCCTT	1.02 ± 0.031
AGGGATTAGC	0.988 ± 0.015
AGGGCAAAAT	1.02 ± 0.035
AGGGCAAGAG	1.38 ± 0.054
AGGGCAAGTG	0.996 ± 0.034
AGGGCAAGTT	1.01 ± 0.064
AGGGCAGAGG	0.98599 ± 0.00021
AGGGCAGCGG	1.03 ± 0.033
AGGGCAGTAT	1.06 ± 0.11
AGGGCCGGCG	1 ± 0.031
AGGGCGCGGA	1.05 ± 0.016
AGGGCGCGTT	0.9645 ± 0.0028
AGGGCGGTCA	0.996 ± 0.025
